IntAct's records for PubMed 11864996

B1: Forkhead box protein O3 (Homo sapiens), O43524 (parent)
chain: MAEAPASPAPLSPLEVELDPEFEPQSRPRSCTWPLQRPELQASPAKPSGETAADSMIPEEEDDEDDEDGGGRAGSAMAIGGGGGSGTLGSGLLLEDSARVLAPGGQDPGSGPATAAGGLSGGTQALLQPQQPLPPPQPGAAGGSGQPRKCSSRRNAWGNLSYADLITRAIESSPDKRLTLSQIYEWMVRCVPYFKDKGDSNSSAGWKNSIRHNLSLHSRFMRVQNEGTGKSSWWIINPDGGKSGKAPRRRAVSMDNSNKYTKSRGRAAKKKAALQTAPESADDSPSQLSKWPGSPTSRSSDELDAWTDFRSRTNSNASTVSGRLSPIMASTELDEVQDDDAPLSPMLYSSSASLSPSVSKPCTVELPRLTDMAGTMNLNDGLTENLMDDLLDNITLPPSQPSPTGGLMQRSSSFPYTTKGSGLGSPTSSFNSTVFGPSSLNSLRQSPMQTIQENKPATFSSMSHYGNQTLQDLLTSDSLSHSDVMMTQSDPLMSQASTAVSAQNSRRNVMLRNDPMMSFAAQPNQGSLVNQNLLHHQHQTQGALGGSRALSNSVSNMGLSESSSLGSAKHQQQSPVSQSMQTLSDSLSGSSLYSTSANLPVMGHEKFPSDLDLDMFNGSLECDMESIIRSELMDADGLDFNFDSLISTQNVVGLNVGNFTGAKQASSQSWVPG

Variants of: B1
Settings: with 1433z_human YWHAZ

effect of a mutation on the interaction | Variant
disrupting interaction | T32A;S253A;S315A
